One block for each binder: values may come before it.
Legend:
[1] = molecular target: T1, ectodomain of murine βKlotho (F53 to L995 of SEQ ID NO: 218) with a C-terminal FLAG tag (murine, UniProt Q99N32 53-995); experiment: SPR; βKlotho ectodomain immobilized, FGFR ligand-binding domain as analyte (FIG. 3B)
T1 construct: Expressed in HEK293 cells and purified from culture media; also called βKlotho ectodomain; not shown: C-terminal FLAG tag
T1 sequence: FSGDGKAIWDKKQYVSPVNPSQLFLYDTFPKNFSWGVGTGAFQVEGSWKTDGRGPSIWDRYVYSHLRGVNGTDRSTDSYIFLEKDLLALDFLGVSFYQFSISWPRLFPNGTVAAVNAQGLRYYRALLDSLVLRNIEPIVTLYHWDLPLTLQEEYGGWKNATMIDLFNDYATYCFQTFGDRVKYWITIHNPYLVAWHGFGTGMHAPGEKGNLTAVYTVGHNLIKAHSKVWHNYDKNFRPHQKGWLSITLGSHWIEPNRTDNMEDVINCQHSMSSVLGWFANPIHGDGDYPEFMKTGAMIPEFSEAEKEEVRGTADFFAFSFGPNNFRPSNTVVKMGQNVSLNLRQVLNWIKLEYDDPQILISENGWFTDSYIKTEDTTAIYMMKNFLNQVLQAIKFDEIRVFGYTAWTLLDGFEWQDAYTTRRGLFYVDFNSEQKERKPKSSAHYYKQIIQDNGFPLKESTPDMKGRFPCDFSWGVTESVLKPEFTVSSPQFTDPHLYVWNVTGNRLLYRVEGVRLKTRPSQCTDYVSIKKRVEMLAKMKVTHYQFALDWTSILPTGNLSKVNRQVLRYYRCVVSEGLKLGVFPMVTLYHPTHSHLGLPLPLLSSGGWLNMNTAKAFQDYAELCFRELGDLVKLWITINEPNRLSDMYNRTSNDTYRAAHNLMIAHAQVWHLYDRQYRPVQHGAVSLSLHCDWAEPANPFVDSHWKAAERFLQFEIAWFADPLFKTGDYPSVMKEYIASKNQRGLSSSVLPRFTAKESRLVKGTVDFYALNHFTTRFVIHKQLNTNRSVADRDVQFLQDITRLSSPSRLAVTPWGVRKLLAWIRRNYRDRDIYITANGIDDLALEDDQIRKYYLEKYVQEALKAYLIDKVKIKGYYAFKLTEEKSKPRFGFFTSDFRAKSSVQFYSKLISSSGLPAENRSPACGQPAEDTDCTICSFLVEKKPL
Protocol: FIGS. 3A-3G show the FGFR binding specificity profile of βKlotho. […] Where binding was observed, the dissociation constant (KD) was calculated from the saturation binding curve. The data shown in FIGS. 3A-G are representative of two to five independent experiments.
SPR experiments were performed on a Biacore 2000 instrument (Biacore AB), and all the protein-protein and protein-peptide interactions were studied at 25° C. in HBS-EP buffer (10 mM HEPES-NaOH, pH 7.4, 150 mM NaCl, 3 mM EDTA, 0.005% (v/v) polysorbate 20). Proteins were immobilized by amine coupling on flow channels of research grade CM5 chips (Biacore AB). Proteins were injected over a CM5 chip at a flow rate of 50 μl min⁻¹, and at the end of each protein injection (180 s), HBS-EP buffer (50 μl min⁻¹) was flowed over the chip to monitor dissociation for 180 s. In experiments where βKlotho binding to FGFR was analyzed, the chip surface was then regenerated by injecting 50 μl of 2.0 M NaCl in 10 mM sodium/potassium phosphate, pH 6.5. In experiments where α/βKlotho binding to FGF19/21/23 or binding of the FGFR1c-βKlotho complex to FGF21 was studied, 2.0 M NaCl in 10 mM sodium acetate, pH 4.5 was used for chip regeneration. To control for nonspecific binding in experiments where the ectodomain of αKlotho or βKlotho was immobilized on the chip, β-glucuronidase was coupled to the control flow channel of the chip (˜43-68 fmol/mm²).

[2] = molecular target: T2, 1:1 binary complex of FGFR1c ligand-binding domain and βKlotho ectodomain (human; murine, UniProt P11362 142-365; Q99N32 53-995); experiment: SPR competition; FGF21 immobilized, FGFR1c-βKlotho complex mixed with an equimolar amount of the chimera (FIG. 15F)
T2 construct: also called FGFR1c-βKlotho complex; FGFR1c-βKlotho; not shown: C-terminal FLAG tag
T2 sequence 1: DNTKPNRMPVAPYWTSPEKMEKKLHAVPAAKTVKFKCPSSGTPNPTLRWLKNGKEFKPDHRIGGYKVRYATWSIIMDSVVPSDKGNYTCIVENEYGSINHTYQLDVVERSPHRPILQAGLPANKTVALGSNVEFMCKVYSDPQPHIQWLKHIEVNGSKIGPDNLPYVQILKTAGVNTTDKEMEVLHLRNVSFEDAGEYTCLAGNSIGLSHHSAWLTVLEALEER
T2 sequence 2: T1 sequence
Protocol: To examine whether mutants of FGF21 or chimeras composed of a N-terminal portion of FGF21 and a C-terminal portion of FGF19 can compete with wild-type ligand for binding to the FGFR1c-βKlotho complex, FGF21 was immobilized on a chip (˜30 fmol/mm² of flow channel). Increasing concentrations of FGF21 mutant or chimera (0-60 nM) were mixed with a fixed concentration of 1:1 complex of FGFR1c ligand-binding domain and βKlotho ectodomain (10 nM), and the mixtures were passed over the chip. As a control, competition of FGF21 in solution with immobilized FGF21 for binding to the FGFR1c-βKlotho complex was studied. The results are shown in FIGS. 14A to 14D and 15A to 15F.
A competition binding assay was selected over a direct binding assay because its binding data are not confounded by the effects that the coupling of one binding partner to the chip might have. Specifically, it was examined whether a mutant or chimera can compete with native FGF21 for binding to the FGFR1c-βKlotho complex. […] FGF21 was immobilized on a biosensor chip, and mixtures of a fixed concentration of FGFR1c-βKlotho complex with increasing concentrations of either FGF21 mutant or FGF21/FGF19 chimera were passed over the chip. As a control, competition of FGF21 in solution with immobilized FGF21 for binding to the FGFR1c-βKlotho complex was studied.

[3] = molecular target: T1, ectodomain of murine βKlotho (F53 to …); experiment: SPR; FGF23 immobilized, increasing concentrations of βKlotho ectodomain passed over the chip (FIG. 4C)
Source text: FGF19 was immobilized on a biosensor chip, and increasing concentrations of βKlotho ectodomain were passed over the chip. […] FGF21 was immobilized on a biosensor chip, and increasing concentrations of βKlotho ectodomain were passed over the chip. Note that for any given concentration of βKlotho, the binding response is greater on the FGF19 chip surface than on the FGF21 chip surface. Also note that the FGF19-βKlotho complex dissociates more slowly than the FGF21-βKlotho complex (compare the dissociation phases of the sensorgrams shown in (A) and (B)). […] FGF23 was immobilized on a biosensor chip, and increasing concentrations of βKlotho ectodomain were passed over the chip. […] FGF19 was immobilized on a biosensor chip, and increasing concentrations of αKlotho ectodomain were passed over the chip. […] FGF21 was immobilized on a biosensor chip, and increasing concentrations of αKlotho ectodomain were passed over the chip. […]
SPR experiments were performed on a Biacore 2000 instrument (Biacore AB), and all the protein-protein and protein-peptide interactions were studied at 25° C. in HBS-EP buffer (10 mM HEPES-NaOH, pH 7.4, 150 mM NaCl, 3 mM EDTA, 0.005% (v/v) polysorbate 20). […] In experiments where βKlotho binding to FGFR was analyzed, the chip surface was then regenerated by injecting 50 μl of 2.0 M NaCl in 10 mM sodium/potassium phosphate, pH 6.5.

- binding result [1]: binds
B1: ligand-binding domain of human FGFR2c (N149 to E368 of SEQ ID NO: 226) (receptor)
chain: NNKRAPYWTNTEKMEKRLHAVPAANTVKFRCPAGGNPMPTMRWLKNGKEFKQEHRIGGYKVRNQHWSLIMESVVPSDKGNYTCVVENEYGSINHTYHLDVVERSPHRPILQAGLPANASTVVGGDVEFVCKVYSDAQPHIQWIKHVEKNGSKYGPDGLPYLKVLKAAGVNTTDKEIEVLYIRNVTFEDAGEYTCLAGNSIGISFHSAWLTVLPAPGREKE

B2: FGF21^29-197/FGF19^204-216 chimera (H29 to V197 of human FGF21 and T204 to K216 of human FGF19; SEQ ID NO: 205) (ligand)
chain: HPIPDSSPLLQFGGQVRQRYLYTDDAQQTEAHLEIREDGTVGGAADQSPESLLQLKALKPGVIQILGVKTSRFLCQRPDGALYGSLHFDPEACSFRELLLEDGYNVYQSEAHGLPLHLPGNKSPHRDPAPRGPARFLPLPGLPPALPEPPGILAPQPPDVGSSDPLSMVTGLEAVRSPSFEK
notes: Chimera of human FGF21 and human FGF19, purified from E. coli inclusion bodies; also called FGF21^C-tail variant 19-41; printed once as FGF21^29-97/FGF19^204-216
- percent inhibition of FGFR1c-βKlotho binding to immobilized FGF21 at an equimolar ratio of chimera to complex [2]: ≤ 75%

- binding result [3]: no binding
B3: human FGF23, secreted bioactive form (Y25 to I251 of SEQ ID NO: 223) with arginines 176 and 179 replaced with glutamine (ligand)
chain: YPNASPLLGSSWGGLIHLYTATARNSYHLQIHKNGHVDGAPHQTIYSALMIRSEDAGFVVITGVMSRRYLCMDFRGNIFGSHYFDPENCRFQHQTLENGYDVYHSPQYHFLVSLGRAKRAFLPGMNPPPYSQFLSRRNEIPLIHFNTPIPRQHTQSAEDDSERDPLNVLKPRARMTPAPASCSQELPSAEDNSPMASDPLGVVRGGRVNTHAGGTGPEGCRPFAKFI
notes: The cleavage site was mutated to minimize proteolysis; Used as specificity control on the SPR chip
